Measurements published in patent US6034071.

Biological target: FLAG epitope tagged adenylyl cyclase 2 (rat)

protein kinase C (enzyme)
32P incorporated into purified F-AC2 after PMA treatment of the cells: 3 fold
